Legend:
[1] = molecular target: SARS-CoV-2 Spike S1 protein (SARS-CoV-2, UniProt P0DTC2 16-685)
SARS S1 and S2 protein = molecular target: T1, SARS S1 and S2 protein (SARS, UniProt P59594 14-1195); assay: direct ELISA, OD450
T1 construct: domain: S1 and S2

MERS-CoV Spike protein = MERS-CoV Spike protein (MERS-CoV, UniProt K9N5Q8 18-1296); assay: direct ELISA, OD450
HKU1 S1 and S2 protein = molecular target: T2, HKU1 S1 and S2 protein (HKU1, UniProt Q5MQD0 13-1300); assay: direct ELISA, OD450
T2 construct: domain: S1 and S2
T2 sequence: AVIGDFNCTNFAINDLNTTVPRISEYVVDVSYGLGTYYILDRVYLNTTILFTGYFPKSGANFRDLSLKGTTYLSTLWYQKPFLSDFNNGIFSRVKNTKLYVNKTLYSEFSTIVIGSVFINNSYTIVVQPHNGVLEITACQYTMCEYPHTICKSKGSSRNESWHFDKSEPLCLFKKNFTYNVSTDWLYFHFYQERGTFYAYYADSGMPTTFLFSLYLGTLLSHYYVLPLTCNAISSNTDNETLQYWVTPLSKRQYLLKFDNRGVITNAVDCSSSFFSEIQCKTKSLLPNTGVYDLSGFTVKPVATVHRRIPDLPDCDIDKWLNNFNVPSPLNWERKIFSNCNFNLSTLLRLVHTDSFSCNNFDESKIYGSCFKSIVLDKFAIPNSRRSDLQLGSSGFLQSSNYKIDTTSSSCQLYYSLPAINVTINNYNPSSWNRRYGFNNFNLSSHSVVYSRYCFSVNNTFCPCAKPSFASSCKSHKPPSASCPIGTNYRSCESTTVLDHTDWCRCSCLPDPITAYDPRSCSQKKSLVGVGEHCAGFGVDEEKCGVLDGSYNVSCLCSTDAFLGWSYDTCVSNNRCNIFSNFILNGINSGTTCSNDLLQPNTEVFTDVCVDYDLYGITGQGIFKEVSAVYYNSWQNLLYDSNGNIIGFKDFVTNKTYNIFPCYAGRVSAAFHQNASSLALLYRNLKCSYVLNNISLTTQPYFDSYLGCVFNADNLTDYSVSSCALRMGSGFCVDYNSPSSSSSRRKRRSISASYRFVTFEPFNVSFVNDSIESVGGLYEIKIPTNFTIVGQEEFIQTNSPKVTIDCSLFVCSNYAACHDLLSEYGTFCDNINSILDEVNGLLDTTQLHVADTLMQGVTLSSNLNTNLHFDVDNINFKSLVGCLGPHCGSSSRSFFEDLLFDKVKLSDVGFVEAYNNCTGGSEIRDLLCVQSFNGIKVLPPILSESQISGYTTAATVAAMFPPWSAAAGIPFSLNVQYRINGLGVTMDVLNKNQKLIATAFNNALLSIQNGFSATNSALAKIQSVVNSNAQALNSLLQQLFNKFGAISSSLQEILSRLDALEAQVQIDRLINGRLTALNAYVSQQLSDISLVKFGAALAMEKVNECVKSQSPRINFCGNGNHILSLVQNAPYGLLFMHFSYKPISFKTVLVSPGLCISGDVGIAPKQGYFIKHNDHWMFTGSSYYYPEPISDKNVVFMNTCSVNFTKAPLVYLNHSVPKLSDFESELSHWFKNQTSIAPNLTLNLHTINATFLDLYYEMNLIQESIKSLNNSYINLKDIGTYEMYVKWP

HcoV-229E S protein = molecular target: T3, HcoV-229E S protein (HcoV-229E, UniProt P15423 16-1115); assay: direct ELISA, OD450
T3 sequence: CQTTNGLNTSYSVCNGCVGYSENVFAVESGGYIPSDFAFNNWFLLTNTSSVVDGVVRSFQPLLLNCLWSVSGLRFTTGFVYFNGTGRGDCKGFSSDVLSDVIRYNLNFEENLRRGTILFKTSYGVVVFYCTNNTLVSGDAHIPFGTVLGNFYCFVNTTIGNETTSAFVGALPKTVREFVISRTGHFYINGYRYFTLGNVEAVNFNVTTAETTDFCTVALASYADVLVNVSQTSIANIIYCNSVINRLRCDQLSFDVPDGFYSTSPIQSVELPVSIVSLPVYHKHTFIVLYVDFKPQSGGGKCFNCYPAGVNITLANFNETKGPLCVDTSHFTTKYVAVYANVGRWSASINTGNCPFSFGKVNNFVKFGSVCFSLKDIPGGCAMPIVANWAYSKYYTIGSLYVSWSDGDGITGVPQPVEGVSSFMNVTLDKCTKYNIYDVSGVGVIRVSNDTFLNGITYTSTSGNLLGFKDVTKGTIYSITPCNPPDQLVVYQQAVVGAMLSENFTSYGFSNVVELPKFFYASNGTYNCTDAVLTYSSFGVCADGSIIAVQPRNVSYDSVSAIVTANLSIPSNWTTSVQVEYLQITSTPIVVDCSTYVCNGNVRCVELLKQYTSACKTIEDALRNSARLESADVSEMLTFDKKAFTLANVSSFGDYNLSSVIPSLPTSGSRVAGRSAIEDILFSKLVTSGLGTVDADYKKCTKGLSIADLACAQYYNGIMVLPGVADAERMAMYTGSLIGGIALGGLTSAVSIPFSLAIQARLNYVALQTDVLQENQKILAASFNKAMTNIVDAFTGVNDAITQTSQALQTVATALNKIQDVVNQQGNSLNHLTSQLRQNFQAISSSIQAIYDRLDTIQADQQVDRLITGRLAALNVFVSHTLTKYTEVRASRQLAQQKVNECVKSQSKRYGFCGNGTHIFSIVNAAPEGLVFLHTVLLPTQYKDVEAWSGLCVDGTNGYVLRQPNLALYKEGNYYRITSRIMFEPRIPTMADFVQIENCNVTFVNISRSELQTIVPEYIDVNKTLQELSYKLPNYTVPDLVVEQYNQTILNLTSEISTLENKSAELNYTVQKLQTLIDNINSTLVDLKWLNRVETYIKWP

B1: rabbit monoclonal antibody 9A5 against the SARS-CoV-2 S1 (antibody, V domains shown)
VH: QSVEESGGRLVTPGTPLTLTCTVSGFSLSAYQMIWVRQTPGKGLEYIGIMHTGTSAYYANWAKGRFTISKTSSTTVDLKMTSPTTEDTATYFCGRNLNEGFTGAYPFNLWGPGTLVAVSS
VL: DVVMTQTPASVEAAVGGTVTIKCQASQSIGSNLAWYQKKPGQPPKLLIYQASNLASGVPSRFKGSGSGTQFTLTISDLECADAATYYCQMNYYISSSYTYTFGGGTEVVVKG
Kd [1]: 0.87 nM
koff [1]: 0.000115 s⁻¹
kon [1]: 132000 M⁻¹ s⁻¹
binding result (SARS S1 and S2 protein): no binding
binding result (MERS-CoV Spike protein): no binding
binding result (HKU1 S1 and S2 protein): no binding
binding result (HcoV-229E S protein): no binding

B2: rabbit monoclonal antibody 1H1 against the SARS-CoV-2 S1 (antibody, V domains shown)
VH: QSLEESGGDLVKPGASLTLTCTASGFSFSSGYDMCWVRQAPGKGLEWIACIGTGSSGNIYYASWAKGRFTISKTSSTTVTLQMTSLTAADTATYFCARDDADYAGPDYFNLWGPGTLVTVSS
VL: DIVMTQTPASVSEPVGGTVTIKCQASESISNWLAWYQQKPGQPPKLLIYAAFTLASGVPSRFKGSGSGTQFTLTINGVECADAATYYCQQTYSSRDVDNVFGGGTEVVVKG
Kd [1]: 2.06 nM
koff [1]: 0.000273 s⁻¹
kon [1]: 133000 M⁻¹ s⁻¹
binding result (SARS S1 and S2 protein): no binding
binding result (MERS-CoV Spike protein): no binding
binding result (HKU1 S1 and S2 protein): no binding
binding result (HcoV-229E S protein): no binding

B3: rabbit monoclonal antibody 7G5 against the SARS-CoV-2 S1 (antibody, V domains shown)
VH: QEQLEESGGDLVKPGASLTLTCTASGFSFSSAYYMCWVRQAPGKGLEWIACIGVDSGGNSYYASWAKGRFTISTTSSTTVTLQMTSLTAADKATYFCTRSFSLWGPGTLVTISS
VL: RKWLTQTASSVSAAVGGTVTISCQASQSVYNNDNLAWFQQRPGQPPKLLIYLASNLASGVPPRFSGSGSGTQFTLTISDVQCDDAATYYCLGGYDCSNADCHAFGGGTEVVVKG
Kd [1]: 2.14 nM
koff [1]: 0.000261 s⁻¹
kon [1]: 122000 M⁻¹ s⁻¹
binding result (SARS S1 and S2 protein): no binding
binding result (MERS-CoV Spike protein): no binding
binding result (HKU1 S1 and S2 protein): no binding
binding result (HcoV-229E S protein): no binding

B4: rabbit monoclonal antibody 1A3 against the SARS-CoV-2 S1 (antibody, V domains shown)
VH: QSLEESGGRLVTPGTPLTLTCTVSGFSFSSYHMGWVRQAPGEGLEWIGTLIGIAGNTYYASWAKGRFSISKTSTTVDLKMTSPTTEDTATYWCARIVTATFEFWGPGTLVTVSS
VL: AQVLTQTPSPVSAAVGGTVTISCQASQSVNMNLLSWFQQKPGQPPKLLIYQASNLASGVSARFKGSGSGTQFTLTINEIQCDDAATYYCQGDMGGWMFPFGGGTEVVVTG
Kd [1]: 0.537 nM
koff [1]: 9.34e-05 s⁻¹
kon [1]: 174000 M⁻¹ s⁻¹
binding result (SARS S1 and S2 protein): no binding
binding result (MERS-CoV Spike protein): no binding
binding result (HKU1 S1 and S2 protein): no binding
binding result (HcoV-229E S protein): no binding

B5: rabbit monoclonal antibody 1D2 against the SARS-CoV-2 S1 (antibody, V domains shown)
VH: QSVEESGGRLVTPGTSLTLTCTVSGIDIETYWMSWVRQAPGKGLEWIAIITSHDHSGYANWAEGRFTISKTSTTVTLTITDLQPSDTGTYFCAKDVGHSTYDLWGPGTLVTVSS
VL: AAVLTQTPSPVSAAVGGTVTISCQSSESVLSNNRLSWYQQKPGQPPKLLIYAASTLASGVPSRFKGRGSGTQFTLTISDVQCDDAAMYVCAGAFSGSSDTRAFGGGTEVVVKG
Kd [1]: 3.55 nM
koff [1]: 0.000259 s⁻¹
kon [1]: 72900 M⁻¹ s⁻¹
binding result (HcoV-229E S protein): no binding

From US20220056111A1 (YUROGEN BIOSYSTEMS, published 2022)
